According to patent US20130136748A1 (Ablynx, published 2013):
Where two headings read alike, the source gives them in different places. Blank lines part the entries; values can stand above or below the molecule they belong to.

Tests used:
hHER3 full length [1] = biological target: T1, hHER3 full length (human, UniProt P21860 20-1342); experiment: FACS competition with HRG1-β1-EGF, CHO-HER3
[2] = biological target: T2, human HER3-Fc (R&D Systems, 348-RB) (human, UniProt P21860 20-643); experiment: SPR, HER3-Fc captured by anti-Fc
T2 construct: Bought; also called hHER3-Fc; Fc-HER3; Fc part of the bought chimera not given, not described

hHER3 full length [3] = biological target: T1, hHER3 full length; experiment: cell-based or functional assay
hHER3 full length [4] = biological target: T1, hHER3 full length; experiment: cell-based or functional assay; remark: listed apart in the source
[5] = biological target: T3, hHER3 ECD (human HER3 extracellular domain) (human, UniProt P21860 20-643); experiment: ELISA, coated hHER3-ECD
T3 construct: also called recombinant HER3-ECD

[6] = biological target: T4, cHER3ECD (Maccaca fascicularis HER3 extracellular domain) (Macaca fascicularis, UniProt P21860 20-643 (human entry)); experiment: ELISA, coated cHER3-ECD
T4 construct: also called cyno HER3ECD; cyno HER3-ECD
T4 chain: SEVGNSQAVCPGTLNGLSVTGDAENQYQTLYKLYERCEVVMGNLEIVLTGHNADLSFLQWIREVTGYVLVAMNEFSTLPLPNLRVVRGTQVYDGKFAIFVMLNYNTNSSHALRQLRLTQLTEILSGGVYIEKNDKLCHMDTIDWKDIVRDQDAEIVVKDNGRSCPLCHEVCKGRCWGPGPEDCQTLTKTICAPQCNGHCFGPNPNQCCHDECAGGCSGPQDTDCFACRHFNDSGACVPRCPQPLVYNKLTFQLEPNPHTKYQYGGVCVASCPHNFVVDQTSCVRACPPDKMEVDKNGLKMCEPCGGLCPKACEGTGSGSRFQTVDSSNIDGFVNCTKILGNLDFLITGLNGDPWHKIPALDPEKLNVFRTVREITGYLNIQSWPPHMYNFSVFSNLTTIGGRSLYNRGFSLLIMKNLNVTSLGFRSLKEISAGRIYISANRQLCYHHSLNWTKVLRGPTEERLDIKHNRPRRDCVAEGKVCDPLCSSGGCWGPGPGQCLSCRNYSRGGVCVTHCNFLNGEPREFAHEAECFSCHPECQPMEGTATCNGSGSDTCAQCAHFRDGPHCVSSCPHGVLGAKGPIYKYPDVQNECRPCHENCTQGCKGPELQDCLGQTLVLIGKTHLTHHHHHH

hHER3 full length [7] = biological target: T1, hHER3 full length; experiment: FACS, 400 nM, competitor 04C07-biotin
hHER3 full length [8] = biological target: T1, hHER3 full length; experiment: FACS, 400 nM, competitor 04F10-biotin
hHER3 full length [9] = biological target: T1, hHER3 full length; experiment: FACS, 400 nM, competitor 17C08-biotin
hHER3 full length [10] = biological target: T1, hHER3 full length; experiment: FACS, 400 nM, competitor 18E08-biotin
hHER3 full length [11] = biological target: T1, hHER3 full length; experiment: FACS, 400 nM, competitor 21B02-biotin
hHER3 full length [12] = biological target: T1, hHER3 full length; experiment: FACS, 400 nM, competitor 23F05-biotin
hHER3 full length [13] = biological target: T1, hHER3 full length; experiment: cell-based or functional assay; remark: listed apart in the source
[14] = biological target: T2, human HER3-Fc (R&D Systems, 348-RB); experiment: HRG competition alphascreen
[15] = biological target: T2, human HER3-Fc (R&D Systems, 348-RB); experiment: HRG competition alphascreen; remark: listed apart in the source
hHER3 full length [16] = biological target: T1, hHER3 full length; experiment: cell-based or functional assay; remark: listed apart in the source
[17] = biological target: T3, hHER3 ECD (human HER3 extracellular …); experiment: SPR off rate on HER3-ECD, periplasmic extract
[18] = biological target: T2, human HER3-Fc (R&D Systems, 348-RB); experiment: 18G11 competition alphascreen, periplasmic extract

IC50 pHER3, HRG1-β1 stimulated MCF7 (hHER3 full length [13]): 1.21e-07 M
IC50 [14]: 5.1 nM
B2: HER3MS00129 (VHH)
VHH: EVQLVESGGGLVQPGGSLRLSCAASGFTFSSYPMSWVRQAPGKGPEWVSTVSPGGITTSYADSVKGRFTISRDNSKNTLYLQMNSLRPEDTAVYYCLRDLGNRGQGTLVTVSS
notes: 04C07 basic + A46E + N101G

IC50 pHER3, HRG1-β1 stimulated MCF7 (hHER3 full length [13]): 2.26e-07 M
IC50 [14]: 5.8 nM
B3: HER3MS00131 (VHH)
VHH: EVQLVESGGGLVQPGGSLRLSCAASGFTFSSYPMSWVRQAPGKGPEWVSTVSPGGITTSYADSVKGRFTISRDNSKNTLYLQMNSLRPEDTAVYYCLRDLSNRGQGTLVTVSS
notes: 04C07 basic + A46E + N101S

IC50 pHER3, HRG1-β1 stimulated MCF7 (hHER3 full length [13]): 9.38e-09 M
IC50 [14]: 0.88 nM
B4: HER3MS00130 (VHH)
VHH: EVQLVESGGGLVQPGGSLRLSCAASGFTFSSYPMSWVRQAPGKGPAWVSTVSPGGITTSYADSVKGRFTISRDNSKNTLYLQMNSLRPEDTAVYYCLRDLGNRGQGTLVTVSS
notes: 04C07 basic + N101G

IC50 pHER3, HRG1-β1 stimulated MCF7 (hHER3 full length [13]): 1.31e-08 M
IC50 [14]: 1 nM
B5: HER3MS00132 (VHH)
VHH: EVQLVESGGGLVQPGGSLRLSCAASGFTFSSYPMSWVRQAPGKGPAWVSTVSPGGITTSYADSVKGRFTISRDNSKNTLYLQMNSLRPEDTAVYYCLRDLSNRGQGTLVTVSS
notes: 04C07 basic + N101S

IC50 [15]: 0.811 nM
B7: HER3MS00078 (VHH)
VHH: EVQLVESGGGLVQPGGSLRLSCAASGSIGGLNAMAWYRQAPGKERELVAGIFGVGSTRYADSVKGRFTISRDISKNTVYLQMNSLRSEDTAVYYCRMSSVTRGSSDYWGQGTLVTVSS
notes: 17B05 basic + F79Y; also called HER3MS0078

IC50 [15]: 3.08 nM
B8: HER3MS00079 (VHH)
VHH: EVQLVESGGGLVQPGGSLRLSCAASGSIGGLNAMAWYRQAPGKERELVAGIFGVGSTRYADSVKGRFTISRDISKNTVFLQMNSLRSEDTAVYYCAMSSVTRGSSDYWGQGTLVTVSS
notes: also called HER3MS0079

IC50 [15]: 4.05 nM
B9: HER3MS00082 (VHH)
VHH: EVQLVESGGGLVQPGGSLRLSCAASGSIGGLNAMAWYRQAPGKERELVAGIFGVGSTRYADSVKGRFTISRDISKNTVYLQMNSLRSEDTAVYYCAMSSVTRGSSDYWGQGTLVTVSS
notes: also called HER3MS0082

IC50 [15]: 5.89 nM
B10: HER3MS00081 (VHH)
VHH: EVQLVESGGGLVQPGGSLRLSCAASGSIGGLNAMAWYRQAPGKERELVAGIFGVGSTRYADSVKGRFTISRDNSKNTVFLQMNSLRSEDTAVYYCAMSSVTRGSSDYWGQGTLVTVSS
notes: also called HER3MS0081

The remaining lines, values behind:

Molecule: Control MAb1 (antibody)
IC50 (hHER3 full length [1]): 9.4 nM

Molecule: Control MAb2 (antibody)
IC50 (hHER3 full length [1]): 67.2 nM

Molecule: Control Fab1
Kd [2]: 0.57 nM
kon [2]: 703000 M⁻¹ s⁻¹

Molecule: Control Fab2
Kd [2]: 2.77 nM
kon [2]: 93400 M⁻¹ s⁻¹

B1: 05A09 (VHH)
VHH: EVQLVESGGGLVQAGGSLRLSCAASGFTFDDYAIGWFRQAPGKEREGVSCISSSDGSTVYADSVKGRFTISSDNAKNTVYLQMNSLKPEDTAVYYCAAERRRGYSDLCRFYYGMDYWGKGTQVTVSS
IC50, HRG1-β1 induced pHER3, MCF-7 (hHER3 full length [3]): 9.12e-08 M
IC50, HRG1-β1 induced pHER3, MDA-MB468 (hHER3 full length [3]): 1.28e-07 M
IC50, HRG1-β1 induced pAkt, MCF-7 (hHER3 full length [4]): 2.9e-07 M
inhibition of HRG1-β1 induced pERK1/2, MCF-7 (hHER3 full length [4]): < 50 % inhibition
EC50 [5]: 1.45 nM
EC50 [6]: 1.3 nM
% competition (hHER3 full length [7]): 0%
% competition (hHER3 full length [8]): 0%
% competition (hHER3 full length [9]): 48%
% competition (hHER3 full length [10]): 78%
% competition (hHER3 full length [11]): 22%
% competition (hHER3 full length [12]): 10%

B6: HER3MS00077 (VHH)
VHH: EVQLVESGGGLVQPGGSLRLSCAASGSIGGLNAMAWYRQAPGKERELVAGIFGVGSTRYADSVKGRFTISRDNSKNTVFLQMNSLRSEDTAVYYCRMSSVTRGSSDYWGQGTLVTVSS
notes: 17B05 basic + I73N; also called HER3MS0077
IC50 [15]: 0.753 nM

B11: HER3MS00068 (VHH)
VHH: EVQLVESGGGLVQPGGSLRLSCAASGTLFKINAMGWYRQAPGKRRELVALITSSDTTDYAESVEGRFTISRDNTWNAVYLQMNSLKPEDTAVYYCHSDHYSGGVPEKRVIMYGQGTLVTVSS
notes: 18G11 M99G
IC50 pHER3 blocking, HRG stimulated MCF7 (hHER3 full length [16]): 8.88e-08 M
koff [17]: 0.001 s⁻¹
% inhibition [18]: 84.4%

B12: HER3MS00070 (VHH)
VHH: EVQLVESGGGLVQPGGSLRLSCAASGTLFKINAMGWYRQAPGKRRELVALITSSDTTDYAESVEGRFTISRDNTWNAVYLQMNSLKPEDTAVYYCHSDHYSIGVPEKRVIMYGQGTLVTVSS
notes: 18G11 M99I
IC50 pHER3 blocking, HRG stimulated MCF7 (hHER3 full length [16]): 3.78e-08 M
koff [17]: 0.00064 s⁻¹
% inhibition [18]: 82.2%

B13: HER3MS00074 (VHH)
VHH: EVQLVESGGGLVQPGGSLRLSCAASGTLFKINAMGWYRQAPGKRRELVALITSSDTTDYAESVEGRFTISRDNTWNAVYLQMNSLKPEDTAVYYCHSDHYSMGVPEKRVIEYGQGTLVTVSS
notes: 18G11 M102E
IC50 pHER3 blocking, HRG stimulated MCF7 (hHER3 full length [16]): 6.3e-08 M
koff [17]: 0.00049 s⁻¹
% inhibition [18]: 82.7%

B14: HER3MS00069 (VHH)
VHH: EVQLVESGGGLVQPGGSLRLSCAASGTLFKINAMGWYRQAPGKRRELVALITSSDTTDYAESVEGRFTISRDNTWNAVYLQMNSLKPEDTAVYYCHSDHYSLGVPEKRVIMYGQGTLVTVSS
notes: 18G11 M99L
IC50 pHER3 blocking, HRG stimulated MCF7 (hHER3 full length [16]): 5.27e-08 M
koff [17]: 0.00081 s⁻¹
% inhibition [18]: 83%

B15: HER3MS00073 (VHH)
VHH: EVQLVESGGGLVQPGGSLRLSCAASGTLFKINAMGWYRQAPGKRRELVALITSSDTTDYAESVEGRFTISRDNTWNAVYLQMNSLKPEDTAVYYCHSDHYSMGVPEKRVIDYGQGTLVTVSS
notes: 18G11 M102D
IC50 pHER3 blocking, HRG stimulated MCF7 (hHER3 full length [16]): 8.75e-08 M
koff [17]: 0.00083 s⁻¹
% inhibition [18]: 84.4%

B16: HER3MS00071 (VHH)
VHH: EVQLVESGGGLVQPGGSLRLSCAASGTLFKINAMGWYRQAPGKRRELVALITSSDTTDYAESVEGRFTISRDNTWNAVYLQMNSLKPEDTAVYYCHSDHYSVGVPEKRVIMYGQGTLVTVSS
notes: 18G11 M99V
IC50 pHER3 blocking, HRG stimulated MCF7 (hHER3 full length [16]): 7.35e-08 M
koff [17]: 0.00084 s⁻¹
% inhibition [18]: 80.9%

B17: HER3MS00072 (VHH)
VHH: EVQLVESGGGLVQPGGSLRLSCAASGTLFKINAMGWYRQAPGKRRELVALITSSDTTDYAESVEGRFTISRDNTWNAVYLQMNSLKPEDTAVYYCHSDHYSMGVPEKRVILYGQGTLVTVSS
notes: 18G11 M102L
IC50 pHER3 blocking, HRG stimulated MCF7 (hHER3 full length [16]): 5.76e-08 M
koff [17]: 0.00082 s⁻¹
% inhibition [18]: 88%

B18: 34A04 (VHH)
VHH: EVQLVESGGGLVQAGGSLRLSCAASGFTFDDYTIGWFRQAPGKEREEISCISNNDGSTYYTNSVKGRFTISSDNAKNTVYLQMNSLKPEDTAVYYCAASPHGCWYDLIPLQADFGSWGQGTQVTVSS
IC50, HRG1-β1 induced pHER3, MCF-7 (hHER3 full length [3]): 3.02e-08 M
IC50, HRG1-β1 induced pHER3, MDA-MB468 (hHER3 full length [3]): 2.2e-08 M
IC50, HRG1-β1 induced pAkt, MCF-7 (hHER3 full length [4]): 6.26e-08 M
IC50, HRG1-β1 induced pERK1/2, MCF-7 (hHER3 full length [4]): 3.13e-07 M
EC50 [5]: 0.57 nM
EC50 [6]: 0.49 nM
Kd [2]: 2.7 nM
kon [2]: 2.63e+06 M⁻¹ s⁻¹
% competition (hHER3 full length [7]): 22%
% competition (hHER3 full length [8]): 3%
% competition (hHER3 full length [9]): 14%
% competition (hHER3 full length [10]): 25%
% competition (hHER3 full length [11]): 99%
% competition (hHER3 full length [12]): 97%
